Tests used:
Assay in all cases: holdup assay
Set-up in all cases: key: below the threshold = too weak to quantify, mostly under pKd 3.1 to 4
Settings in all cases: plain residues with an end cap or a label only (N-terminal biotin on a linker: ado-ado)
MPP6, Q9NZW5 = target: T1, MPP6, Q9NZW5
T1 sequence (Q9NZW5 125-219, limits assumed, looked up): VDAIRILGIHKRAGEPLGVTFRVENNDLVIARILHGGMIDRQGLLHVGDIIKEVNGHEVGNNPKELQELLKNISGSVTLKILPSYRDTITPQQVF

GRIP2_5, Q9C0E4 = target: GRIP2_5, Q9C0E4
SHANK1, Q9Y566 = target: T2, SHANK1, Q9Y566
T2 sequence (Q9Y566 658-767, limits assumed, looked up): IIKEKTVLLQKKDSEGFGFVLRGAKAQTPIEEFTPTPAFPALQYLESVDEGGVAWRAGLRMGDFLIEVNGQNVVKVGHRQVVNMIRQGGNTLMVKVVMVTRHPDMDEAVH

LDB3, O75112 = target: LDB3, O75112
Chain of LDB3, O75112 (O75112 1-94): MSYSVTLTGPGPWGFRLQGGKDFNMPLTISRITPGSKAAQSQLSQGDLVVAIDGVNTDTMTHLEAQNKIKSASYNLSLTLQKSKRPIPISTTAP

Inadl_8, Q8NI35 = target: Inadl_8, Q8NI35
Chain of Inadl_8, Q8NI35 (Q8NI35 1425-1530): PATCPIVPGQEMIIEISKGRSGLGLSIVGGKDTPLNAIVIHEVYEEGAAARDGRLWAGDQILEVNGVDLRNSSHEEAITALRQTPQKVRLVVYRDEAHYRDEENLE

CASK, O14936 = target: CASK, O14936
Chain of CASK, O14936 (O14936 487-570): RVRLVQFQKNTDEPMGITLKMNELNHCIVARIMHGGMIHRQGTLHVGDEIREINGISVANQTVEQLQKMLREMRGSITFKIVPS

APBA3_1, O96018 = target: T3, APBA3_1, O96018
T3 sequence (O96018 389-490, limits assumed, looked up): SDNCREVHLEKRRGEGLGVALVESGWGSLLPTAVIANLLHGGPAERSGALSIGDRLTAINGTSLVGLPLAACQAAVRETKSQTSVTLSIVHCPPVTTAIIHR

DLG4_1, P78352 = target: DLG4_1, P78352
Chain of DLG4_1, P78352 (P78352 62-152): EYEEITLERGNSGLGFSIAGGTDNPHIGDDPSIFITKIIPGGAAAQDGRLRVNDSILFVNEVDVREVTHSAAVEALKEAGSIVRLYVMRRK

TJP1_3, Q07157 = target: TJP1_3, Q07157
Chain of TJP1_3, Q07157 (Q07157 416-512): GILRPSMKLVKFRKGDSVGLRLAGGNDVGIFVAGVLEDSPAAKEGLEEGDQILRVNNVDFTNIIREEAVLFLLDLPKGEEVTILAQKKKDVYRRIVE

IL16_3, Q14005 = target: IL16_3, Q14005
Chain of IL16_3, Q14005 (Q14005 1107-1207): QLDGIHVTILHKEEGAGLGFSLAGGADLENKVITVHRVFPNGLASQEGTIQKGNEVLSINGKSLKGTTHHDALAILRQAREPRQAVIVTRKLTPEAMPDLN

GRIP2_3, Q9C0E4 = target: GRIP2_3, Q9C0E4
Chain of GRIP2_3, Q9C0E4 (Q9C0E4 238-339): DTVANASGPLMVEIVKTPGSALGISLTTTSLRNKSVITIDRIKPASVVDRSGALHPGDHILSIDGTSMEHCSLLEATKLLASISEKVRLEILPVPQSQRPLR

PTPN3, P26045 = target: PTPN3, P26045
Chain of PTPN3, P26045 (P26045 505-587): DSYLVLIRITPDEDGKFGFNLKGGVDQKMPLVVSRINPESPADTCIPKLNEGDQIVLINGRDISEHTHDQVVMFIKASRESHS

FRMPD3, Q5JV73 = target: FRMPD3, Q5JV73
Chain of FRMPD3, Q5JV73 (Q5JV73 12-100): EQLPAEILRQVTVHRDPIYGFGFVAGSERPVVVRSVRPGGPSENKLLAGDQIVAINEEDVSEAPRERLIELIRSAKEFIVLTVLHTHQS

LIMK2, P53671 = target: LIMK2, P53671
Chain of LIMK2, P53671 (P53671 143-248): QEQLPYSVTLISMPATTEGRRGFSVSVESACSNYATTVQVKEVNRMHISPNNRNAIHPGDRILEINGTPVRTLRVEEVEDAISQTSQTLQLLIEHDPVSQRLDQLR

SCRIB_3, Q14160 = target: SCRIB_3, Q14160
Chain of SCRIB_3, Q14160 (Q14160 999-1103): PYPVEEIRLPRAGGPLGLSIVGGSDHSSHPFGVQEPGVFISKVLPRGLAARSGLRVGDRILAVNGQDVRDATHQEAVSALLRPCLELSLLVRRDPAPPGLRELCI

MAGI2_6, Q86UL8 = target: MAGI2_6, Q86UL8
Chain of MAGI2_6, Q86UL8 (Q86UL8 1141-1229): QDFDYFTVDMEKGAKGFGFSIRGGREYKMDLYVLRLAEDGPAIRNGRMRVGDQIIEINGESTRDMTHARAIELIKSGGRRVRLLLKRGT

MAGI2_4, Q86UL8 = target: MAGI2_4, Q86UL8
Chain of MAGI2_4, Q86UL8 (Q86UL8 772-865): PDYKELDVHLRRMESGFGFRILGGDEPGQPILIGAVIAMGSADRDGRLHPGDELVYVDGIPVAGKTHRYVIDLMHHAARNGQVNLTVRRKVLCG

DLG4_2, P78352 = target: DLG4_2, P78352
Chain of DLG4_2, P78352 (P78352 155-259): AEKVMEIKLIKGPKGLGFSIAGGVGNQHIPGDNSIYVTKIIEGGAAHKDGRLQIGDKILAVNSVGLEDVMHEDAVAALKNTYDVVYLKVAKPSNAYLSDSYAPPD

MAGI3_2, Q5TCQ9 = target: MAGI3_2, Q5TCQ9
Chain of MAGI3_2, Q5TCQ9 (Q5TCQ9 398-503): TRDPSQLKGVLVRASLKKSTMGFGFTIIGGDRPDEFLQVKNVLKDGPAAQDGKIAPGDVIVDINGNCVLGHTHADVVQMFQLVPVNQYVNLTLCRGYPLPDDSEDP

GRIP2_4, Q9C0E4 = target: GRIP2_4, Q9C0E4
Chain of GRIP2_4, Q9C0E4 (Q9C0E4 446-548): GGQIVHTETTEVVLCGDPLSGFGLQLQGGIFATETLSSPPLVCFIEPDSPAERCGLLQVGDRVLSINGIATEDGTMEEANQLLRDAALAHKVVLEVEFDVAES

LNX2_2, Q8N448 = target: T4, LNX2_2, Q8N448
T4 sequence (Q8N448 334-432, limits assumed, looked up): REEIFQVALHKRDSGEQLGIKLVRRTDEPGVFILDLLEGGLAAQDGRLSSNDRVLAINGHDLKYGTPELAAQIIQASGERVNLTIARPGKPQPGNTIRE

GRIP2_6, Q9C0E4 = target: GRIP2_6, Q9C0E4
Chain of GRIP2_6, Q9C0E4 (Q9C0E4 648-740): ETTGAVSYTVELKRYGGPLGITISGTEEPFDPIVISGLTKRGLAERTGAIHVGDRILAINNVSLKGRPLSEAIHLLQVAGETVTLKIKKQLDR

DFNB31_3, Q9P202 = target: T5, DFNB31_3, Q9P202
T5 sequence (Q9P202 811-907, limits assumed, looked up): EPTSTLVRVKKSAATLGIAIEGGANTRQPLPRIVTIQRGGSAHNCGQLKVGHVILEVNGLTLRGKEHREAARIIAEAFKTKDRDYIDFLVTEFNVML

Inadl_1, Q8NI35 = target: Inadl_1, Q8NI35
Chain of Inadl_1, Q8NI35 (Q8NI35 113-229): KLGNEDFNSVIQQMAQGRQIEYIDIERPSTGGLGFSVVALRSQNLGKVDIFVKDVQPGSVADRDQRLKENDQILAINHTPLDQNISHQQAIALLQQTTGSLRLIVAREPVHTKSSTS

MPDZ_12, O75970 = target: T6, MPDZ_12, O75970
T6 sequence (O75970 1857-1958, limits assumed, looked up): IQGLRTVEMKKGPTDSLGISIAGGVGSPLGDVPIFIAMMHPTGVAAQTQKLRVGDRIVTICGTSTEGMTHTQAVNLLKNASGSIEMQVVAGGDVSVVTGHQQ

PDZD7_3, Q9H5P4 = target: T7, PDZD7_3, Q9H5P4
T7 sequence (Q9H5P4 857-944, limits assumed, looked up): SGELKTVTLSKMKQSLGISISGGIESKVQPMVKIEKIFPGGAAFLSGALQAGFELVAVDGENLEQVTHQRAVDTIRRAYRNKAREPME

MPP2, Q14168 = target: T8, MPP2, Q14168
T8 sequence (Q14168 180-250, limits assumed, looked up): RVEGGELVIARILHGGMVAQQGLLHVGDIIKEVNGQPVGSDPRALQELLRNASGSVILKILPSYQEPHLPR

DLG3_3, Q92796 = target: T9, DLG3_3, Q92796
T9 sequence (Q92796 374-475, limits assumed, looked up): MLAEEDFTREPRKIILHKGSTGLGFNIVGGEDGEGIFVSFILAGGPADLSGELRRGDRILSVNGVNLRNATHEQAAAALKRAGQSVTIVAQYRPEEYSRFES

DFNB31_1, Q9P202 = target: T10, DFNB31_1, Q9P202
T10 sequence (Q9P202 135-233, limits assumed, looked up): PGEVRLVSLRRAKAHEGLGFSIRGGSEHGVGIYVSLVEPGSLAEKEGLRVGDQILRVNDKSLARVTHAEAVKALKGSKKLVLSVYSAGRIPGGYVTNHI

Chain of GRIP2_5, Q9C0E4 (Q9C0E4 544-642): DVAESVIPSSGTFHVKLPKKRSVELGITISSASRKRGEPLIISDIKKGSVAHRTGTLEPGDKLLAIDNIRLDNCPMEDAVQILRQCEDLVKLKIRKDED

QLGSPTADLA [SIPA1, Q96FS4]
pKd (MPP6, Q9NZW5): below the threshold
pKd (GRIP2_5, Q9C0E4): below the threshold
pKd (SHANK1, Q9Y566): below the threshold
pKd (LDB3, O75112): below the threshold
pKd (Inadl_8, Q8NI35): below the threshold
pKd (CASK, O14936): below the threshold
pKd (APBA3_1, O96018): below the threshold
pKd (DLG4_1, P78352): below the threshold
pKd (TJP1_3, Q07157): below the threshold
pKd (IL16_3, Q14005): below the threshold
pKd (GRIP2_3, Q9C0E4): below the threshold
pKd (PTPN3, P26045): below the threshold
pKd (FRMPD3, Q5JV73): below the threshold
pKd (LIMK2, P53671): below the threshold
pKd (SCRIB_3, Q14160): below the threshold
pKd (MAGI2_6, Q86UL8): below the threshold
pKd (MAGI2_4, Q86UL8): below the threshold
pKd (DLG4_2, P78352): 3.54
pKd (MAGI3_2, Q5TCQ9): below the threshold
pKd (GRIP2_4, Q9C0E4): below the threshold
pKd (LNX2_2, Q8N448): below the threshold
pKd (GRIP2_6, Q9C0E4): below the threshold
pKd (DFNB31_3, Q9P202): 3.55
pKd (Inadl_1, Q8NI35): below the threshold
pKd (MPDZ_12, O75970): 3.75
pKd (PDZD7_3, Q9H5P4): below the threshold
pKd (MPP2, Q14168): below the threshold
pKd (DLG3_3, Q92796): below the threshold
pKd (DFNB31_1, Q9P202): below the threshold

NKSEPFLTWL [WWTR1, Q9GZV5]
pKd (MPP6, Q9NZW5): 3.9
pKd (GRIP2_5, Q9C0E4): below the threshold
pKd (SHANK1, Q9Y566): 5.29
pKd (LDB3, O75112): 4.47
pKd (Inadl_8, Q8NI35): below the threshold
pKd (CASK, O14936): below the threshold
pKd (APBA3_1, O96018): 3.5
pKd (DLG4_1, P78352): 3.49
pKd (TJP1_3, Q07157): below the threshold
pKd (IL16_3, Q14005): below the threshold
pKd (GRIP2_3, Q9C0E4): below the threshold
pKd (PTPN3, P26045): 4.74
pKd (FRMPD3, Q5JV73): 4.26
pKd (LIMK2, P53671): below the threshold
pKd (SCRIB_3, Q14160): 5.14
pKd (MAGI2_6, Q86UL8): 4.9
pKd (MAGI2_4, Q86UL8): 3.85
pKd (DLG4_2, P78352): 3.54
pKd (MAGI3_2, Q5TCQ9): 3.89
pKd (GRIP2_4, Q9C0E4): below the threshold
pKd (LNX2_2, Q8N448): 4.44
pKd (GRIP2_6, Q9C0E4): below the threshold
pKd (DFNB31_3, Q9P202): 5.34
pKd (Inadl_1, Q8NI35): 4.52
pKd (MPDZ_12, O75970): 4.9
pKd (PDZD7_3, Q9H5P4): 5.12
pKd (MPP2, Q14168): 3.62
pKd (DLG3_3, Q92796): below the threshold
pKd (DFNB31_1, Q9P202): 3.85

RGKNRRQSIF [CDK18, Q07002]
pKd (MPP6, Q9NZW5): below the threshold
pKd (GRIP2_5, Q9C0E4): below the threshold
pKd (SHANK1, Q9Y566): below the threshold
pKd (LDB3, O75112): below the threshold
pKd (Inadl_8, Q8NI35): below the threshold
pKd (CASK, O14936): below the threshold
pKd (APBA3_1, O96018): below the threshold
pKd (DLG4_1, P78352): below the threshold
pKd (TJP1_3, Q07157): below the threshold
pKd (IL16_3, Q14005): below the threshold
pKd (GRIP2_3, Q9C0E4): below the threshold
pKd (PTPN3, P26045): 3.77
pKd (FRMPD3, Q5JV73): below the threshold
pKd (LIMK2, P53671): below the threshold
pKd (SCRIB_3, Q14160): 3.65
pKd (MAGI2_6, Q86UL8): below the threshold
pKd (MAGI2_4, Q86UL8): below the threshold
pKd (DLG4_2, P78352): 3.75
pKd (MAGI3_2, Q5TCQ9): below the threshold
pKd (GRIP2_4, Q9C0E4): below the threshold
pKd (LNX2_2, Q8N448): 3.58
pKd (GRIP2_6, Q9C0E4): below the threshold
pKd (DFNB31_3, Q9P202): 3.65
pKd (Inadl_1, Q8NI35): below the threshold
pKd (MPDZ_12, O75970): 3.58
pKd (PDZD7_3, Q9H5P4): below the threshold
pKd (MPP2, Q14168): 3.54
pKd (DLG3_3, Q92796): 3.71
pKd (DFNB31_1, Q9P202): below the threshold

PSVYSRSQYV [CLDN8, P56748]
pKd (MPP6, Q9NZW5): below the threshold
pKd (GRIP2_5, Q9C0E4): below the threshold
pKd (SHANK1, Q9Y566): below the threshold
pKd (LDB3, O75112): below the threshold
pKd (Inadl_8, Q8NI35): 3.84
pKd (CASK, O14936): below the threshold
pKd (APBA3_1, O96018): below the threshold
pKd (DLG4_1, P78352): below the threshold
pKd (TJP1_3, Q07157): below the threshold
pKd (IL16_3, Q14005): below the threshold
pKd (GRIP2_3, Q9C0E4): below the threshold
pKd (PTPN3, P26045): below the threshold
pKd (FRMPD3, Q5JV73): below the threshold
pKd (LIMK2, P53671): below the threshold
pKd (SCRIB_3, Q14160): below the threshold
pKd (MAGI2_6, Q86UL8): below the threshold
pKd (MAGI2_4, Q86UL8): 3.62
pKd (DLG4_2, P78352): 3.79
pKd (MAGI3_2, Q5TCQ9): 3.52
pKd (GRIP2_4, Q9C0E4): below the threshold
pKd (LNX2_2, Q8N448): 4.66
pKd (GRIP2_6, Q9C0E4): 3.48
pKd (DFNB31_3, Q9P202): below the threshold
pKd (Inadl_1, Q8NI35): below the threshold
pKd (MPDZ_12, O75970): below the threshold
pKd (PDZD7_3, Q9H5P4): below the threshold
pKd (MPP2, Q14168): below the threshold
pKd (DLG3_3, Q92796): below the threshold
pKd (DFNB31_1, Q9P202): below the threshold
